Laboratory results from the DeepSol protein solubility set.

experiment: soluble on expression in E. coli; label from the status in PepcDB or PDB records

Row | Sequence | soluble on expression in E. coli
1 | MTDYAHKMSLDLRMIDLERYSDHIDNKASHCAKMLNDYYQKFDAQKGTQFVFSDLGTYKPGGEFNVYSEIKRKLVEDYHIPSHEVRFIQECKNEKAKKAMVDAMNRGDIRIIFGSTSMLGTGVNAQQRAVAIHHLDTPWRPSDLEQRNGRAVRKGNMIAKEFADNKVDVIIYAVERSLDSYKFNLLHNKQLFINQLKTNTLGSRTIDEGSMDEDGGMNFSEYVAVLSGNTNLLEKAKLDKKIATLESERKNFLRERDTATGKLAEIDSSVSFHSDKIKEAKEDLACFEKRVERDAEGLPINKLTIKGVEGSTDIKVIAARLQEIEEKARTKGEYNKIGEIYGFSIMVKTENSSKELFDCSSNRFFVKGQESIYYTYNNGKLASDPKLACQNFINALERIPKVIESHEKEKEKVSANKEVYMTIAGGSWKKEDELRSLKGQAAELDRKIALTLAPPEEEKETEEEKQVQEHGISGKEPIQETRYSAEPISHKQAEKTPPSEQVTPPPTRQPRSNEPGGYIETQMEIG | not soluble
2 | MGSDKIHHHHHHMFKIDRLRFGTAGIPISTPKPSTIAGIERVRELGLDAMELEFVRGINIKPELAKKIKYVAEKNDIVLTAHAPYYINLNAKEKEKVEASKRRIIQSAERLYEAGGWSVVFHAGYYLKQPKESVYQKILSALKEIQKELMDKGIKVWLRPELTGKPTQFGDLKELVKLSQELELVLPAIDFAHAHARNKGKCNTEEEWREMLALIENELGREALDNMHIHISGIEYGEKGEKRHLNLEESDLKWEDLLKVLKEFRVKGVIISESPNIEGDAILMKKKWEELKI | not soluble
3 | MCMTRQPAVAGQFYTDEPKRLRGDLQRMIPAETMKQRVKGIVAPHAGYVYSGHVAGAVYGAIEIPSTVVILGPNHHGFGAAAALYPEGEWLTPLGSVPIDVRLSQLVQKHVPLVEPEMSAHRFEHSLEVQVPFLQYRADVSIVPICLGFGDYERCRLLGEGIARAIREFGEDVLIVASSDMTHYESADAARAKDEQAIAEVLALNPEGLVQICRRKNITMCGVIPATVMLVTAKALGASKAELISYATSGDVTGDNRQVVAYAAMAVYLEHHHHHH | not soluble
4 | MAHHHHHHMPKYYCEYCDIYLTHSSPVGRRQHIHGRKHISAKIEYFQNLLREEGITPQNFLGFLNNRNINNPLGNPMMNYMNPNMYMKYNPMKSYHSYSMRSSHPYRLNIHNNKYSRAGYVPPSHHKYSVNPMHNNYHQAHNNYSYPNSINPSNQINYSNNYGSNNFNNSNEFNKNMNEKDNINNNDIHDNKVKTDENDPINNDNLNNTRNFSYEENHYSTDHKKPSFLNPENSKEHIESDIS | not soluble
5 | MKLTGKQTWVFEHPIFVNSAGTAAGPKEKDGPLGSLFDKTYDEMHCNQKSWEMAERQLMEDAVNVALQKNNLTKDDIDLLLAGDLLNQNVTANYVARHLKIPFLCMFGACSTSMETVAVASALVDGGFAKRALAATSSHNATAERQFRYPTEYGGQKPDTATSTVTGSGAVVISQTPGDIQITSATVGKVSDLGITDPFDMGSAMAPAAADTIKQHFKDLNRTADDYDLILTGDLSGVGSPIVKDILKEDGYPVGTKHDDCGLLIYTPDQQVFAGGSGCACSAVVTYSHIFKQLREGKLNRVFVVATGALLSPTMIQQKETIPTIAHGVVFERAGGASLEHHHHHH | soluble
6 | MAEQRSNIMRLPPSGYRLHRFPPLAQPVAVDEEFGLDNQGWQESQVDIQQQLEAGFQQGLQQGHEEGLRQGIEQGKQQGLLDGQKEGFQKGFVSGEQAGKQGFLEAAKPVNDLFQALSRWQSEKEQQQRHMICELVQKVAQQVIRAELTLMPQQILALVDETLSAMPGKAETVTVHLNPQDLERITHINADLPKSWKLVANNELPIGGCQLVTDDAEADASCDSRLEACMDNVKQHLLDEVSIPQVESENE | not soluble
7 | GYWGCKDLNSVFVYANQAYGELIGLKRAEDCIGRTDFEMPSPTAACAAEFQQQDRYVIETGHSVKVLDIHPYPDGHWHAHIFTKTPWRDSQGKIQGTIFFGQDLT | not soluble
8 | YKIDFYRNFLVPLKVGKIKKIILDLRGNGGGMVLDARTFTDRFITKDAIFGYQRFKEDNNPFSYTPWIPCMTKTTGIGIKKEIPIVILLDNNSASMSEISTLMLKSQGKHVTVVGGYSAGATAGLGDSDQFNGGIRGKVSDYLEFYMPLLAMQDATHTVIEGIGIKPDLLVDPLTEDEVREMALSPFTHIDRTLKQAIEVLSNN | not soluble
9 | MIPDDEFIKNPSVPGPTAMEVRCLIMCLAEPGKNDVAVDVGCGTGGVTLELAGRVRRVYAIDRNPEAISTTEMNLQRHGLGDNVTLMEGDAPEALCKIPDIDIAVVGGSGGELQEILRIIKDKLKPGGRIIVTAILLETKFEAMECLRDLGFDVNITELNIARGRALDRGTMMVSRNPVALIYTGVSHENKD | soluble
10 | MGSDKIHHHHHHMIPEKKSIAIMKELSIGNTKQMLMINGVDVKNPLLLFLHGGPGTPQIGYVRHYQKELEQYFTVVHWDQRGSGLSYSKRISHHSMTINHFIKDTIQVTQWLLAHFSKSKLYLAGHSWGSILALHVLQQRPDLFYTYYGISQVVNPQDEESTAYQHIREISESKKASILSFLTRFIGAPPWKQDIQHLIYRFCVELTRGGFTHRHRQSLAVLFQMLTGNEYGVRNMHSFLNGLRFSKKHLTDELYRFNAFTSVPSIKVPCVFISGKHDLIVPAEISKQYYQELEAPEKRWFQFENSAHTPHIEEPSLFANTLSRHARNHL | not soluble
11 | SELPRKANRRNSSCSSISSVSESSSPSALDESTLTKILPTDNFRGGRGFASPSPPTSLLSEPLSRMDVLSEKIWDYHNKVSQTDEMLQRKLHLRDMLYTAISPVFPLSGLYVVGSSLNGFGNNSSDMDLCLMITNKDLDQKNDAVVVLNLILSTLQYEKFVESQKLILAKVPILRINFAAPFDDITVDLNANNSVAIRNTHLLCYYSSYDWRVRPLVSVVKEWAKRKGINDANKSSFTSYSLVLMVIHFLQCGPTKVLPNLQQSYPNRFSNKVDVRTLNVTMALEEVADDIDQSLSEKTTLGELLIGFLDYYANEFNYDRDAISIRQGRRVERAALAVRPKIHSNSEGDKETPPPSSSASTSSIHNGGTPGIPMHHSISNPHFWRSQWRCVCIEEPFTNSNTAHSIYDEMVFEAIKKAFREAHGELQHNHDLDKLMECEPIKASTTNTGAAVFAATYEGERPLAQQPNTIACASLRVLNSIPVSSGPGHYHYQQQSNQNLSRPQRPGSNQGYQMNNNRGFNGNNQQQHQNRRSFNNQSSSNPGNGSTGPRSSRSNENVRDSSRQQNSQKGSSGVSVSKENVASTTGVPVDKKQQNSNRKDDGNRTKRSPMVQSPEPAKTKSEKTPMASSNVSQ | soluble
12 | MGSDKIHHHHHHMTNQLLSEQWFEHQAKVTEAIGRPGFAASLFAALGVIRPIQATTVYLYPHDGMPCALFEQDDKAPWQPEGNVSRYLSGFYLLDPFYGACVEQVESGCYGLFEVAPDHFEVSEYYQSFYRHSHLEDELNYILQVAPGQSLAVSLAFTDKLDGQSRTRFGLITPWVLAVLGKHFAGLDSRAGRFENILEQRIHAALNNFGSSLLTERECRIAQLILRGHSTKSLAERLGVSEDTIKSHRKNVYAKLDIGTQSELFSLFIDALANAQGVLGKDPLESYMGKLR | not soluble
13 | MVARISVGKNLYGALAYNQNKVDEGGAKVLSAHLLRYPEDGRFRPDESVRQFLEWMPNHYRTEKPVIHISLNPHPDDVLTDGQLAEIGREYMQRLGYGNQPYLVFKHEDIGRHHIHIVSLRVDSEGRKVSDKFEYRRSKEITELLEQKYGLHPAEGRKKGEEWQLKPVDVAKGDIKRQIACTLKPLLELYSFRTMGELRALLSLYNIGVEEVKGEIGGRTYHGILYTALDGNGETAATPIKSSRLGRTAGAQQLDRKMRESAARIKSAPCRERLRPLVADALRQSVDERDFRDRLAKEQIDLVLRRNGTDRIYGVTFIDHRSRTVLNGSRLGKEFSANMLNGHFQEQPPNSLSPLLPPVPSAVASGNGEKIPGGLLSDMEPELNYVPRYPKLLKPDKKKRRRRYGRQDLEHHHHHH | soluble
14 | MGSDKIHHHHHHVPNFLPINTILVPQGAEYKAVCRGLNGVTGSIPTVVAIPVGMKPLLKYLHQGQFLAPKSRVLIMGICGSLSDRYRVGDIVLYQDCIYQGKLLECDRTFTAQLHSSLSEKVSLVKSLTSDRMIWSAAEKLHLGETLAADVVDMEGFTALEFFNVGGVAVTMLRVVSDDCQHDIPDLTSAINSDGSLNPFSLAMAMLRQPLAATRLIRGSLTALKVLEQVTNMLFSGNRPE | not soluble
15 | MKYIVLLGDGMSDEPMQELGGKTPLQAARTPHMDAMARRGRIGLARTVPEGYPPGSDVANLSVFGYDPRACYTGRSPLEAASMGVELGSADVAFRVNLVNLAPTRGTLVMNDYSAGHISTAEGRELIEAIQGVMGTDEFQFYPGVGYRHLMVWRNGKCGMTVVPPHDISGQSILEHLPKGEGAERLIELMNSSQLVLNNHPQYRRRLEEGKVPANSIWLWGHGKAPRMASFHEKFGLTGAVISAVDLVRGIGVCAGLDVIKVEGATGYIDTNYEGKVTAALEALEAHDYVYLHVEAPDEAGHGGNLEHKLKAIEDFDARVVGPIMAGMEKFGSYRILCTPDHPTPLRLKTHTDAPVPFVLFSGETSENAGVAGYDEESARSAGLVVEDGFRLMEMMLDRLEHHHHHH | soluble
16 | MGSSHHHHHHSSGLVPRGSMAELSEEALLSVLPTIRVPKAGDRVHKDECAFSFDTPESEGGLYICMNTFLGFGKQYVERHFNKTGQRVYLHLRRTRRPKEEDPATGTGDPPRKKPTRLAIGVEGGFDLSEEKFELDEDVKIVILPDYLEIARDGLGGLPDIVRDRVTSAVEALLSADSASRKQEVQAWDGEVRQVSKHAFSLKQLDNPARIPPCGWKCSKCDMRENLWLNLTDGSILCGRRYFDGSGGNNHAVEHYRETGYPLAVKLGTITPDGADVYSYDEDDMVLDPSLAEHLSHFGIDMLKMQKTDKTMTELEIDMNQRIGEWELIQESGVPLKPLFGPGYTGIRNLGNSCYLNSVVQVLFSIPDFQRKYVDKLEKIFQNAPTDPTQDFSTQVAKLGHGLLSGEYSKPVPESGDGERVPEQKEVQDGIAPRMFKALIGKGHPEFSTNRQQDAQEFFLHLINMVERNCRSSENPNEVFRFLVEEKIKCLATEKVKYTQRVDYIMQLPVPMDAALNKEELLEYEEKKRQAEEEKMALPELVRAQVPFSSCLEAYGAPEQVDDFWSTALQAKSVAVKTTRFASFPDYLVIQIKKFTFGLDWVPKKLDVSIEMPEELDISQLRGTGLQPGEEELPDIAPPLVTPDEPKAPMLDESVIIQLVEMGFPMDACRKAVYYTGNSGAEAAMNWVMSHMDDPDFANPLILPGSSGPGSTSAAADPPPEDCVTTIVSMGFSRDQALKALRATNNSLERAVDWIFSHIDDLDAEAAMDISEGRSAADSISESVPVGPKVRDGPGKYQLFAFISHMGTSTMCGHYVCHIKKEGRWVIYNDQKVCASEKPPKDLGYIYFYQRVAS | soluble
